From US20100260748A1

Biological target: T1, human FcRH5 (FcRH5c/IRTA2c, PRO52387), recombinant protein ('Hu antigen') (human) (UniProt Q96RD9)
T1 sequence: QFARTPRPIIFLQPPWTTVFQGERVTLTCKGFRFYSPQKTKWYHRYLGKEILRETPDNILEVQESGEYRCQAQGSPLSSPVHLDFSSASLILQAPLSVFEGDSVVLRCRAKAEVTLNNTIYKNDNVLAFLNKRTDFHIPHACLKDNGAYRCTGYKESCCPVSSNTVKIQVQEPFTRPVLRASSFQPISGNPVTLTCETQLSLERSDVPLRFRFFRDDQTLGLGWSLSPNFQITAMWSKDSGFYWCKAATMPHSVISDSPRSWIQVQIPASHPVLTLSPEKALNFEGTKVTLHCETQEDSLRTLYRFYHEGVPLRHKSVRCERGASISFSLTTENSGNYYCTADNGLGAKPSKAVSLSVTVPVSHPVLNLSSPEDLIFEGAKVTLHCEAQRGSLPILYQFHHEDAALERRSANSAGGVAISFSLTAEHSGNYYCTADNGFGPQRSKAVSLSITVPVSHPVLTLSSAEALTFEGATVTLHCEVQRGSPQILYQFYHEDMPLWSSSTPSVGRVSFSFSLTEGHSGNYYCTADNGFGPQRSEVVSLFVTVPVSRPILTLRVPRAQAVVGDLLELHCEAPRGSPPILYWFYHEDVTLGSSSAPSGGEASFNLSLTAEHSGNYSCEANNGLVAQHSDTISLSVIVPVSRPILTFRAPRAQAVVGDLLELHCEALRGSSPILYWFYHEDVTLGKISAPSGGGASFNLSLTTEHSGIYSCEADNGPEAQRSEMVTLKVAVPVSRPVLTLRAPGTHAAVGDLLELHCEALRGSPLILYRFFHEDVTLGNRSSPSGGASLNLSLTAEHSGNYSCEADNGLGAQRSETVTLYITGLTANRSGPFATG
Assay: SPR (Biacore 2000), IgG captured on anti-murine IgG chip, serial dilutions of FcRH injected, 25 C, 1:1 Langmuir fit

- Kd: 19 nM
B1: murine anti-FcRH5-13G9 monoclonal antibody (antibody, from another filing, V domains shown)
VH: EVQLVQSGPELKKPGETVKISCKASGYTFTNYGMNWVKQAPGKGLKWMGWVNTYTGEPTYTDDFKGRFAFSVETSASTVFLQINNLKNEDTATYFCARRSIPYYYAMDYWGQGTSLT
VL: DIVMTQSQKIMSTSVGDRVNVTCKASQNVGSNVAWYHQKPGQSPKALIYSASYRYSGVPDRFTGSGSGTDFTLTISNVQSEDLAEYFCQQYKTWTFGGGTKLEIKR
